The values that follow come from US20200024322A1 (Eli Lilly, published 2020).

Changes are numbered by the printed parent chain. Numbered stars: 1 amine (or outer) side, 2 acyl side, 3 side chain; on linkers, the order of the positions; unused ones are H or OH. Square brackets hold non-standard residues; d marks the D form. Side chains are listed from the residue outwards. Ends that are not written are not given here. * marks the point of attachment. C18 diacid = O=C(O)CCCCCCCCCCCCCCCCC(=O)*; γGlu = O=C(O)[C@H](CCC(=O)[*:2])N[*:1]; AEEA = NCCOCCOCC(=O)O; Aib = CC(C)(N)C(=O)O

Sequences and labels used below:
B1: Example 268 (peptide)
peptide: Y[Aib]EGTFTSDYSILLDEK([AEEA-AEEA-γGlu-C18 diacid])AQ[Aib]AFIEYLIEGGPSSG-NH2
modifications: N-terminus assumed
SMILES: CC[C@H](C)[C@H](NC(=O)[C@H](CC(C)C)NC(=O)[C@H](Cc1ccc(O)cc1)NC(=O)[C@H](CCC(=O)O)NC(=O)[C@@H](NC(=O)[C@H](Cc1ccccc1)NC(=O)[C@H](C)NC(=O)C(C)(C)NC(=O)[C@H](CCC(N)=O)NC(=O)[C@H](C)NC(=O)[C@H](CCCCNC(=O)COCCOCCNC(=O)COCCOCCNC(=O)CC[C@H](NC(=O)CCCCCCCCCCCCCCCCC(=O)O)C(=O)O)NC(=O)[C@H](CCC(=O)O)NC(=O)[C@H](CC(=O)O)NC(=O)[C@H](CC(C)C)NC(=O)[C@H](CC(C)C)NC(=O)[C@@H](NC(=O)[C@H](CO)NC(=O)[C@H](Cc1ccc(O)cc1)NC(=O)[C@H](CC(=O)O)NC(=O)[C@H](CO)NC(=O)[C@@H](NC(=O)[C@H](Cc1ccccc1)NC(=O)[C@@H](NC(=O)CNC(=O)[C@H](CCC(=O)O)NC(=O)C(C)(C)NC(=O)[C@@H](N)Cc1ccc(O)cc1)[C@@H](C)O)[C@@H](C)O)[C@@H](C)CC)[C@@H](C)CC)C(=O)N[C@@H](CCC(=O)O)C(=O)NCC(=O)NCC(=O)N1CCC[C@H]1C(=O)N[C@@H](CO)C(=O)N[C@@H](CO)C(=O)NCC(N)=O
B2: Example 299 (peptide)
peptide: Y[Aib]EGTFTSDYSILLDKK([AEEA-AEEA-γGlu-C18 diacid])AQ[Aib]AFLEYLIEGGPSSG-NH2
modifications: N-terminus assumed
SMILES: CC[C@H](C)[C@H](NC(=O)[C@H](CC(C)C)NC(=O)[C@H](Cc1ccc(O)cc1)NC(=O)[C@H](CCC(=O)O)NC(=O)[C@H](CC(C)C)NC(=O)[C@H](Cc1ccccc1)NC(=O)[C@H](C)NC(=O)C(C)(C)NC(=O)[C@H](CCC(N)=O)NC(=O)[C@H](C)NC(=O)[C@H](CCCCNC(=O)COCCOCCNC(=O)COCCOCCNC(=O)CC[C@H](NC(=O)CCCCCCCCCCCCCCCCC(=O)O)C(=O)O)NC(=O)[C@H](CCCCN)NC(=O)[C@H](CC(=O)O)NC(=O)[C@H](CC(C)C)NC(=O)[C@H](CC(C)C)NC(=O)[C@@H](NC(=O)[C@H](CO)NC(=O)[C@H](Cc1ccc(O)cc1)NC(=O)[C@H](CC(=O)O)NC(=O)[C@H](CO)NC(=O)[C@@H](NC(=O)[C@H](Cc1ccccc1)NC(=O)[C@@H](NC(=O)CNC(=O)[C@H](CCC(=O)O)NC(=O)C(C)(C)NC(=O)[C@@H](N)Cc1ccc(O)cc1)[C@@H](C)O)[C@@H](C)O)[C@@H](C)CC)C(=O)N[C@@H](CCC(=O)O)C(=O)NCC(=O)NCC(=O)N1CCC[C@H]1C(=O)N[C@@H](CO)C(=O)N[C@@H](CO)C(=O)NCC(N)=O
B3: Example 270 (peptide)
peptide: Y[Aib]EGTFTSDYSILLDKK([AEEA-AEEA-γGlu-C18 diacid])AQ[Aib]EFIEYLIEGGPSSG-NH2
modifications: N-terminus assumed
SMILES: CC[C@H](C)[C@H](NC(=O)[C@H](CC(C)C)NC(=O)[C@H](Cc1ccc(O)cc1)NC(=O)[C@H](CCC(=O)O)NC(=O)[C@@H](NC(=O)[C@H](Cc1ccccc1)NC(=O)[C@H](CCC(=O)O)NC(=O)C(C)(C)NC(=O)[C@H](CCC(N)=O)NC(=O)[C@H](C)NC(=O)[C@H](CCCCNC(=O)COCCOCCNC(=O)COCCOCCNC(=O)CC[C@H](NC(=O)CCCCCCCCCCCCCCCCC(=O)O)C(=O)O)NC(=O)[C@H](CCCCN)NC(=O)[C@H](CC(=O)O)NC(=O)[C@H](CC(C)C)NC(=O)[C@H](CC(C)C)NC(=O)[C@@H](NC(=O)[C@H](CO)NC(=O)[C@H](Cc1ccc(O)cc1)NC(=O)[C@H](CC(=O)O)NC(=O)[C@H](CO)NC(=O)[C@@H](NC(=O)[C@H](Cc1ccccc1)NC(=O)[C@@H](NC(=O)CNC(=O)[C@H](CCC(=O)O)NC(=O)C(C)(C)NC(=O)[C@@H](N)Cc1ccc(O)cc1)[C@@H](C)O)[C@@H](C)O)[C@@H](C)CC)[C@@H](C)CC)C(=O)N[C@@H](CCC(=O)O)C(=O)NCC(=O)NCC(=O)N1CCC[C@H]1C(=O)N[C@@H](CO)C(=O)N[C@@H](CO)C(=O)NCC(N)=O
B4: Example 298 (peptide)
peptide: Y[Aib]EGTFTSDYSILLDKK([AEEA-AEEA-γGlu-C18 diacid])AQ[Aib]AFVEYLIEGGPSSG-NH2
modifications: N-terminus assumed
SMILES: CC[C@H](C)[C@H](NC(=O)[C@H](CC(C)C)NC(=O)[C@H](Cc1ccc(O)cc1)NC(=O)[C@H](CCC(=O)O)NC(=O)[C@@H](NC(=O)[C@H](Cc1ccccc1)NC(=O)[C@H](C)NC(=O)C(C)(C)NC(=O)[C@H](CCC(N)=O)NC(=O)[C@H](C)NC(=O)[C@H](CCCCNC(=O)COCCOCCNC(=O)COCCOCCNC(=O)CC[C@H](NC(=O)CCCCCCCCCCCCCCCCC(=O)O)C(=O)O)NC(=O)[C@H](CCCCN)NC(=O)[C@H](CC(=O)O)NC(=O)[C@H](CC(C)C)NC(=O)[C@H](CC(C)C)NC(=O)[C@@H](NC(=O)[C@H](CO)NC(=O)[C@H](Cc1ccc(O)cc1)NC(=O)[C@H](CC(=O)O)NC(=O)[C@H](CO)NC(=O)[C@@H](NC(=O)[C@H](Cc1ccccc1)NC(=O)[C@@H](NC(=O)CNC(=O)[C@H](CCC(=O)O)NC(=O)C(C)(C)NC(=O)[C@@H](N)Cc1ccc(O)cc1)[C@@H](C)O)[C@@H](C)O)[C@@H](C)CC)C(C)C)C(=O)N[C@@H](CCC(=O)O)C(=O)NCC(=O)NCC(=O)N1CCC[C@H]1C(=O)N[C@@H](CO)C(=O)N[C@@H](CO)C(=O)NCC(N)=O
B5: Example 253 (peptide)
peptide: YXEGTFTSDYSILLDKKAQAAFIEYLIEGGPSSGAPPPS
modifications: Aib2; K17((2-[2-(2-Amino-ethoxy)-ethoxy]-acetyl)2-(γ-Glu)-CO-(CH2)18-CO2H); C-terminal NH2
B6: Example 233 (peptide)
peptide: YXEGTXTSDXSIXLDXKAQXEFIXYLIEGGPSSGAPPPS
modifications: Aib2; αMeF(2F)6; 4Pal10; αMeL13; Dab16; K17((2-[2-(2-Amino-ethoxy)-ethoxy]-acetyl)2-(γ-Glu)-CO-(CH2)16-CO2H); Aib20; D-Glu24; C-terminal NH2
B7: Example 249 (peptide)
peptide: B6 peptide with X10Y
modifications: Aib2; αMeF(2F)6; Nle13; Orn16; K17((2-[2-(2-Amino-ethoxy)-ethoxy]-acetyl)2-(γ-Glu)-CO-(CH2)16-CO2H); Aib20; D-Glu24; C-terminal NH2
B8: Example 248 (peptide)
peptide: B6 peptide with X10Y, X13L
modifications: Aib2; αMeF(2F)6; Orn16; K17((2-[2-(2-Amino-ethoxy)-ethoxy]-acetyl)2-(γ-Glu)-CO-(CH2)16-CO2H); Aib20; D-Glu24; C-terminal NH2
B9: Example 235 (peptide)
peptide: B6 peptide
modifications: Aib2; αMeF6; 4Pal10; αMeL13; Dab16; K17((2-[2-(2-Amino-ethoxy)-ethoxy]-acetyl)2-(γ-Glu)-CO-(CH2)16-CO2H); Aib20; D-Glu24; C-terminal NH2
B10: Example 234 (peptide)
peptide: B6 peptide with X13L
modifications: Aib2; αMeF(2F)6; 4Pal10; Dab16; K17((2-[2-(2-Amino-ethoxy)-ethoxy]-acetyl)2-(γ-Glu)-CO-(CH2)16-CO2H); Aib20; D-Glu24; C-terminal NH2
B11: Example 246 (peptide)
peptide: B6 peptide with X10A, E21A, Y25X
modifications: Aib2; αMeF(2F)6; αMeL13; Orn16; K17((2-[2-(2-Amino-ethoxy)-ethoxy]-acetyl)2-(γ-Glu)-CO-(CH2)16-CO2H); Aib20; D-Glu24; αMeY25; C-terminal NH2
B12: Example 237 (peptide)
peptide: B6 peptide with X10A, Y25X
modifications: Aib2; αMeF(2F)6; αMeL13; Orn16; K17((2-[2-(2-Amino-ethoxy)-ethoxy]-acetyl)2-(γ-Glu)-CO-(CH2)16-CO2H); Aib20; D-Glu24; αMeY25; C-terminal NH2

For the first assay, the target named is T1, human GIP receptor (human, UniProt P48546 22-466).
T1 construct: whole, on cells; also called hGIPR; hGIP-R
T1 sequence (looked up): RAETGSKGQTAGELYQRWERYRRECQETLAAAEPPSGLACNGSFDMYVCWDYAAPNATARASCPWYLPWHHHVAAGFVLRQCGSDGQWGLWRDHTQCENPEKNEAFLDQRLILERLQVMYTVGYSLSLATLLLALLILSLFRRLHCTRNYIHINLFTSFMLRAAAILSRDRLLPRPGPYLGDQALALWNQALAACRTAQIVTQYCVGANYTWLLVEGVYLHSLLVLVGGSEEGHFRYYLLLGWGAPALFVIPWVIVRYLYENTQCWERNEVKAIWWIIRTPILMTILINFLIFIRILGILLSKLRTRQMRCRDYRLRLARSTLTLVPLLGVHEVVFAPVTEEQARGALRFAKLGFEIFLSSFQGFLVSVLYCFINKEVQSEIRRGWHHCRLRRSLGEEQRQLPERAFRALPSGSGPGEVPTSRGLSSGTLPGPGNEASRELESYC
The experiment in a line: [125I]-GIP competition SPA, hGIPR membranes. On the procedure:
The binding buffer contains 25 mM HEPES, pH 7.4, 2.5 mM CaCl₂, 1 mM MgCl₂, 0.1% (w/v) bacitracin, 0.003% (w/v) TWEEN®-20, and Roche Complete™ Protease Inhibitors without EDTA. […] Plates are sealed and mixed on a plate shaker (setting 6) for 1 minute and read with a PerkinElmer Trilux MicroBeta® scintillation counter after 2.5 to 12 hours of incubation/settling time at room temperature.
(§1) Data are analyzed using four-parameter (curve maximum, curve minimum, IC₅₀, Hill slope) nonlinear regression routines (Genedata Screener, version 12.0.4, Genedata AG, Basal, Switzerland). […] Values for Kᵢ are reported as the geometric mean, with error expressed as the standard error of the mean (SEM) and n is equal to the number of independent replicates (determined in assays performed on different days). Geometric Means are calculated as follows: […]
Turning to B1, the affinity, expressed as Ki, was 81.4 pM. This lies in the picomolar range.
Turning to B2, the affinity corresponds to a Ki of 734 pM.
B3 showed a Ki of 117 pM.
Turning to B4, the affinity, expressed as Ki, was 57.8 pM.
As to B5, the Ki stood at 138 pM.
As for B6, the affinity, expressed as Ki, was 44.5 pM.
Molecule B7 yielded a Ki of 39.4 pM.
With B8, the Ki came out at 39.7 pM.
For the molecule B9, the Ki was found to be 58.1 pM.
The molecule B10 gave a Ki of 56.3 pM.
On to B11, for which the affinity corresponds to a Ki of 50.9 pM.
With B12, the Ki turned out to be 131 pM.

Another assay has as its target T2, human GLP-1 receptor (human, UniProt P43220 24-463).
T2 construct: whole, on cells; also called hGLP-1R; hGLP1R
In words: [125I]-GLP-1 competition SPA, hGLP-1R membranes. On the procedure: The binding buffer contains 25 mM HEPES, pH 7.4, 2.5 mM CaCl₂, 1 mM MgCl₂, 0.1% (w/v) bacitracin, 0.003% (w/v) TWEEN®-20, and Roche Complete™ Protease Inhibitors without EDTA.
as §1
B1 showed an inhibition constant (Ki) of 3980 pM.
Same read-out and setting: for B2 the value was 54300 pM; for B3, 8270 pM.
B4 gave an inhibition constant (Ki) of 3030 pM.
On the same count and under the same terms, for B5 the value was 2570 pM.
In turn, B6 had an inhibition constant Ki of 5990 pM.
On the same count and under the same terms, for B7 the value was 2350 pM; for B8, 2400 pM; for B9, 7650 pM.
Regarding B10, the inhibition constant (Ki) was determined as 10900 pM. The Ki values of the last two molecules are within 1.5-fold of each other.
Molecule B11 came in with a Ki of 812 pM.
Take B12: the affinity corresponds to a Ki of 1040 pM.

As usually defined, the Ki is a dissociation constant, usually derived from enzyme kinetics or from competition with a known ligand. Low values mean a stronger hold on the target, high ones a looser hold on the target.
